Common to all, as to assay: cell_activity
The test system of data set [1] is ZFN 15872 (synthetic). The conditions noted are these: pair with 15873, wt FokI, K562; approx 28% with EL/KK.
The subject of data set [2] is ZFN 28404 (synthetic). The conditions noted are these: pair with 28403, HEK293.
In data set [3] the test system is ZFN 16787 (synthetic). The conditions noted are these: pair with 16783, 10 ug mRNA, primary T cells; background 2.4%.
Data set [4] deals with ZFN 15506 (synthetic). The conditions noted are these: pair with 15507, K562.
Data set [5] has as its system ZFN 28386 (synthetic). The conditions noted are these: pair with 28385, HEK293.
Data set [6] concerns ZFN 25540 (synthetic). The conditions noted are these: pair with 25539, 10 ug mRNA, primary T cells; background 2.4%.
The test system of data set [7] is ZFN 18881 (synthetic). Conditions: pair with 18889, HLA A2, HEK293; A3 allele 9%.
Data set [8] concerns ZFN 24859 (synthetic). Conditions: pair with 18889, HLA A2, HEK293; A3 allele 10%.
The subject of data set [9] is ZFN 28406 (synthetic). The conditions noted are these: pair with 28405, HEK293.
For data set [10], the system named is ZFN 28405 (synthetic). Conditions: pair with 28406, HEK293.
In data set [11] the test system is ZFN 25539 (synthetic). The conditions noted are these: pair with 25540, 10 ug mRNA, primary T cells; background 2.4%.
For data set [12], the system named is ZFN 15487 (synthetic). Conditions: pair with 15486, K562; approx 1% in RAJI.
In data set [13] the test system is ZFN 15910 (synthetic). The conditions noted are these: pair with 15909, EL/KK FokI, K562; 6 and 11% with wt FokI.
The subject of data set [14] is ZFN 15507 (synthetic). Conditions: pair with 15506, K562.
The subject of data set [15] is ZFN 15909 (synthetic). The conditions noted are these: pair with 15910, EL/KK FokI, K562; 6 and 11% with wt FokI.
In data set [16] the test system is ZFN 28394 (synthetic). The conditions noted are these: pair with 28393, HEK293.
In data set [17] the test system is ZFN 18889 (synthetic). The conditions noted are these: pair with 24859, HLA A2, HEK293; with 18881 approx 3%; A3 allele 10% and 9%.
Data set [18] has as its system ZFN 15873 (synthetic). The conditions noted are these: pair with 15872, wt FokI, K562; approx 28% with EL/KK.
Data set [19] has as its system ZFN 28403 (synthetic). The conditions noted are these: pair with 28404, HEK293.
Data set [20] relates to ZFN 28393 (synthetic). The conditions noted are these: pair with 28394, HEK293.
Data set [21] deals with ZFN 28385 (synthetic). Conditions: pair with 28386, HEK293.

“GAAATAAGGCATACTGGTATTACTAATG (double strand) [15872 site]” gave an activity in data set [1] of 13 % NHEJ.
Take “CTGGATGGGGCTTGGCTGATGGTCAGCA (double strand) [28404 site]”: the activity (% gene modification) in data set [2] stood at 64.
Sequence “TCTCGGAGAATGACGAGTGGACCCAGGA (double strand) [16787 site]” registered an activity (% CD3-negative cells) in [3] of 9.4.
The sequence “TTGATGTCAGGGAAGATCTCTCTGATGA (double strand) [15506 site]” registered an activity (% gene modification) in [4] of 2.
As for “AGAAGGCTGTGGGCTCCTCAGAGAAAAT (double strand) [28386 site]”, the activity (% gene modification) in data set [5] is 39.
Consider “CTGACTTTGCATGTGCAAACGCCTTCAA (double strand) [25540 site]”, for which the activity (% CD3-negative cells) in data set [6] is 28.1.
Regarding “TTATCTGGATGGTGTGAGAACCTGGCCC (double strand) [18881 site]”, the activity in data set [7] worked out at 3 % NHEJ.
“TCCTCTGGACGGTGTGAGAACCTGGCCC (double strand) [24859 site]” displayed an activity in data set [8] of 6 % NHEJ.
“CCACAGCCAGAGCCTCAGCAGGAGCCTG (double strand) [28406 site]” returned an activity (% gene modification) in data set [9] of 34.
In data set [10], “CGCAAGAGGCTGGAGAGGCTGAGGACTG (double strand) [28405 site]” registered an activity (% gene modification) of 34.
The sequence “TTGTTGCTCCAGGCCACAGCACTGTTGC (double strand) [25539 site]” gave an activity (% CD3-negative cells) in data set [11] of 28.1.
In the case of “CTACTCGGGCCATCGGCGGCTGCCTCGG (double strand) [15487 site]”, the activity (% gene modification) in [12] was 15.
As to “GCGGGGGAAAGAGAGGAGGAGAGAAGGA (double strand) [15910 site]”, the activity in data set [13] was 14 % NHEJ.
In turn, “GCTCGAAGGCTTGGTGGCCGGGGCCAGT (double strand) [15507 site]” displayed an activity (% gene modification) in [14] of 2.
As for “TCTCCCAGGGTGGTTCAGTGGCAGAATT (double strand) [15909 site]”, the activity in data set [15] is 14 % NHEJ.
In turn, “TTGCGGATCCGGGAGCAGCTTTTCTCCT (double strand) [28394 site]” had an activity (% gene modification) in data set [16] of 49.
For the sequence “GTATGGCTGCGACGTGGGGTCGGACGGG (double strand) [18889 site]”, the activity in data set [17] was 6 % NHEJ.
Consider “GAGGAGAGCAGGCCGATTACCTGACCCA (double strand) [15873 site]”, for which the activity in data set [18] amounted to 13 % NHEJ.
In turn, “GCCCGCGGGCAGTTCTGCGCGGGGGTCA (double strand) [28403 site]” showed an activity (% gene modification) in [19] of 64.
The sequence “TTGATTCGAGACATGGTGTAGGTGAAGC (double strand) [28393 site]” showed an activity (% gene modification) in [20] of 49.
Sequence “ACTCTGGGGTAGATGGAGAGCAGTACCT (double strand) [28385 site]” displayed an activity (% gene modification) in [21] of 39.

These data come from patent US20120060230.
